We go through 4 molecules from paper PMC9482650, “Quantitative fragmentomics allow affinity mapping of interactomes” (Nature Communications, 2022).

Targets include DLG4_2, P78352; FRMPD2_1, Q68DX3; IL16_1, Q14005; Inadl_3, Q8NI35; LAP2, Q96RT1; LIMK2, P53671; LNX1_3, Q8TBB1; NHERF4_2, Q86UT5; NHERF4_4, Q86UT5.
Test in all cases: holdup assay
Holding throughout (design): key: below the threshold = too weak to quantify, mostly under pKd 3.1 to 4

The next assay deals with T1, APBA1_2, Q02410.
T1 sequence (Q02410 742-832, limits assumed, looked up): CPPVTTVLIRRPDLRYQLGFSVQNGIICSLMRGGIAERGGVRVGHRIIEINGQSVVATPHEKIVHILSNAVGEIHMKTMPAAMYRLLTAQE

For a further assay, the target named is T2, APBA2_2, Q99767.
T2 sequence (Q99767 654-744, limits assumed, looked up): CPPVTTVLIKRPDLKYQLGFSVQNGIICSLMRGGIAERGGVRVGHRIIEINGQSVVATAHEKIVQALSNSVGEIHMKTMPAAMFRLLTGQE

For the next assay, the target named is T3, CARD11, Q9BXL7.
T3 sequence (Q9BXL7 662-765, limits assumed, looked up): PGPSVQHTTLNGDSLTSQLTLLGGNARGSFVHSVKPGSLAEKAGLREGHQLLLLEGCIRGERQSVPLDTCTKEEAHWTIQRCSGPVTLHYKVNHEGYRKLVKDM

For another assay, the target named is T4, DFNB31_2, Q9P202.
T4 sequence (Q9P202 274-371, limits assumed, looked up): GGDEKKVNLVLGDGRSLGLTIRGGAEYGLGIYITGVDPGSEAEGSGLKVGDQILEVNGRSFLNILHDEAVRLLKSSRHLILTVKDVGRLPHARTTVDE

A further assay addresses T5, FRMPD1, Q5SYB0.
T5 sequence (Q5SYB0 52-145, limits assumed, looked up): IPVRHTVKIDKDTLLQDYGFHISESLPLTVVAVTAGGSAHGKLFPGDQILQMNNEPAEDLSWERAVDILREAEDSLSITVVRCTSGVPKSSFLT

The next assay has as its target T6, LNX2_3, Q8N448.
T6 sequence (Q8N448 463-564, limits assumed, looked up): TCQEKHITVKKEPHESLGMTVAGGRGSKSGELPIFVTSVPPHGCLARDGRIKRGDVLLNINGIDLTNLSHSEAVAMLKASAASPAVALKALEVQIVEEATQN

A further assay deals with T7, MPDZ_10, O75970.
T7 sequence (O75970 1624-1722, limits assumed, looked up): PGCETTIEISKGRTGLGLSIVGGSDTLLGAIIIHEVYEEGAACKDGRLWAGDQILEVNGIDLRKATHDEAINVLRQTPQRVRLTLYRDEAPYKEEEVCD

For a further assay, the target named is T8, MPP6, Q9NZW5.
T8 sequence (Q9NZW5 125-219, limits assumed, looked up): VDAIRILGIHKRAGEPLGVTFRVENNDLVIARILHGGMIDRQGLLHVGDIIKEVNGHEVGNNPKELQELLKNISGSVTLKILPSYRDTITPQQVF

For a further assay, the target named is T9, MPP7, Q5T2T1.
T9 sequence (Q5T2T1 134-230, limits assumed, looked up): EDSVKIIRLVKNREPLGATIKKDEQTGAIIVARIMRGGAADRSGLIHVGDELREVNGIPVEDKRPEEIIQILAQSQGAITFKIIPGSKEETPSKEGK

Another assay deals with T10, NHERF3_3, Q5T2W1.
T10 sequence (Q5T2W1 238-333, limits assumed, looked up): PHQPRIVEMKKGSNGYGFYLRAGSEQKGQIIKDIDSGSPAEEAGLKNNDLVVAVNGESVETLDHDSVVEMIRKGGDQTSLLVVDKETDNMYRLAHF

A further assay addresses T11, NHERF3_4, Q5T2W1.
T11 sequence (Q5T2W1 373-468, limits assumed, looked up): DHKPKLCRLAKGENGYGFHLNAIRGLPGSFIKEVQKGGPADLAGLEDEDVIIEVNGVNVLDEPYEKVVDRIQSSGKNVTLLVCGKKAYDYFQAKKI

The target of a further assay is T12, PDZD2_2, O15018.
T12 sequence (O15018 329-429, limits assumed, looked up): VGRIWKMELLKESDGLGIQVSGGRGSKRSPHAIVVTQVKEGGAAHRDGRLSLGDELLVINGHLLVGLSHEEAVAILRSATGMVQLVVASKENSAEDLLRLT

In a further assay the target is T13, SHANK1, Q9Y566.
T13 sequence (Q9Y566 658-767, limits assumed, looked up): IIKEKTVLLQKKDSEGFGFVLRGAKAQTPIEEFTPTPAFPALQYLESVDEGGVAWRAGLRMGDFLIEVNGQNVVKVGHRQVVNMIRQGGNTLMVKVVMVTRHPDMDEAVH

A further assay has as its target T14, TX1BP3, O14907.
T14 sequence (O14907 10-122, limits assumed, looked up): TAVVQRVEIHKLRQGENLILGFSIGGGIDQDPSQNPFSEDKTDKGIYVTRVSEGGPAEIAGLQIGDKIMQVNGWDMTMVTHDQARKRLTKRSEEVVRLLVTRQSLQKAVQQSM

[1] abbreviates: plain residues with an end cap or a label only (N-terminal biotin on a linker: ttds).
The mark [2] stands for this setting: plain residues with an end cap or a label only (N-terminal biotin on a linker: ahx).

DLG4_2, P78352, sequence (P78352 155-259): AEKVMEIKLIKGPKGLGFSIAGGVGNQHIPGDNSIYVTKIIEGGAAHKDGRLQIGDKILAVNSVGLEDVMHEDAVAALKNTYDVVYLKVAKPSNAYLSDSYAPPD
NHERF4_4, Q86UT5, sequence (Q86UT5 464-550): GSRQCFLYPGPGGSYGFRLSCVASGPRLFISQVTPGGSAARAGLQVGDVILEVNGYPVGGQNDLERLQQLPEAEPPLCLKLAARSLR
IL16_1, Q14005, sequence (Q14005 210-306): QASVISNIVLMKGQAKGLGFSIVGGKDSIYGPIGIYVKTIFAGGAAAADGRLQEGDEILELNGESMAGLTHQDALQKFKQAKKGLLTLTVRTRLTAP
NHERF4_2, Q86UT5, sequence (Q86UT5 220-308): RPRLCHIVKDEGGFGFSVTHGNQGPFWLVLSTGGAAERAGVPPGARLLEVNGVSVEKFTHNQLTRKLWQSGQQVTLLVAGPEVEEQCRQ
LAP2, Q96RT1, sequence (Q96RT1 other isoform, or with tags, fused parts or gaps): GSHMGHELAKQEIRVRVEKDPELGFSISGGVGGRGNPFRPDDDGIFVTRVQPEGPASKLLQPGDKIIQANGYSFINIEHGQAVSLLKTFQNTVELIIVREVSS
FRMPD2_1, Q68DX3, sequence (Q68DX3 770-861): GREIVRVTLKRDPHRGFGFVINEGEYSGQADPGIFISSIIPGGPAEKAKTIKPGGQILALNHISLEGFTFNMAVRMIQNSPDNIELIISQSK
Inadl_3, Q8NI35, sequence (Q8NI35 359-469): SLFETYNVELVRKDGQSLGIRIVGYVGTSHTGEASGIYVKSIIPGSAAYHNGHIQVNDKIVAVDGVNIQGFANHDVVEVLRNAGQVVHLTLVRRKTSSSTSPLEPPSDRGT
LIMK2, P53671, sequence (P53671 143-248): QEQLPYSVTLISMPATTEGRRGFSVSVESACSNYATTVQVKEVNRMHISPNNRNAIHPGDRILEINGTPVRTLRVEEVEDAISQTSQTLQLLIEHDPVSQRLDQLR
LNX1_3, Q8TBB1, sequence (Q8TBB1 500-596): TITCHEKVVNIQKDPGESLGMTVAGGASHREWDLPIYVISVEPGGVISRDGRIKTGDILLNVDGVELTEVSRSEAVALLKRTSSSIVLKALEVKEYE

B1: FRMPD4, Q14CM0 (peptide)
chain: RLPKIKETTV
As for B1, the negative-log Kd (pKd) (commonly the Kd on a negative log10 scale, so that one unit is a factor of ten) in the assay with APBA1_2, Q02410 (setting [1]) is “below the threshold”; with APBA2_2, Q99767 (setting [1]), “below the threshold”; in the assay with CARD11, Q9BXL7 (setting [1]), “below the threshold”; with DFNB31_2, Q9P202 (setting [1]) it was 4.12; with DLG4_2, P78352 (setting [1]) it was 5.6; with FRMPD1, Q5SYB0 (setting [1]) it was “below the threshold”. In addition, the negative-log Kd (pKd) entry with FRMPD2_1, Q68DX3 (setting [1]) was “below the threshold”; in the assay with IL16_1, Q14005 (setting [1]) it was 4.07; in the assay with Inadl_3, Q8NI35 (setting [1]), “below the threshold”; in the assay with LAP2, Q96RT1 (setting [1]) it was 3.87; with LIMK2, P53671 (setting [1]), “below the threshold”; in the assay with LNX1_3, Q8TBB1 (setting [1]), “below the threshold”. Besides, the pKd result with LNX2_3, Q8N448 (setting [1]) is “below the threshold”; in the assay with MPDZ_10, O75970 (setting [1]), “below the threshold”; with MPP6, Q9NZW5 (setting [1]), “below the threshold”; with MPP7, Q5T2T1 (setting [1]), “below the threshold”; in the assay with NHERF3_3, Q5T2W1 (setting [1]), “below the threshold”; with NHERF3_4, Q5T2W1 (setting [1]) it was “below the threshold”. The negative logarithm of the Kd (pKd) result with NHERF4_2, Q86UT5 (setting [1]) is “below the threshold”; with NHERF4_4, Q86UT5 (setting [1]), “below the threshold”; in the assay with PDZD2_2, O15018 (setting [1]) it was 4.05; with SHANK1, Q9Y566 (setting [1]), “below the threshold”; in the assay with TX1BP3, O14907 (setting [1]), 4.57.

B2: TJP3, O95049 (peptide)
chain: GYDWGPATDL
B2: the pKd was 4.17 with APBA1_2, Q02410 (setting [2]); “below the threshold” in the assay with APBA2_2, Q99767 (setting [2]); “below the threshold” with CARD11, Q9BXL7 (setting [2]); “below the threshold” with DFNB31_2, Q9P202 (setting [2]); 3.68 with DLG4_2, P78352 (setting [2]); “below the threshold” with FRMPD1, Q5SYB0 (setting [2]). Moreover, the negative logarithm of the Kd (pKd) result with FRMPD2_1, Q68DX3 (setting [2]) was “below the threshold”; with IL16_1, Q14005 (setting [2]), “below the threshold”; in the assay with Inadl_3, Q8NI35 (setting [2]) it was 3.72; with LAP2, Q96RT1 (setting [2]), 3.73; in the assay with LIMK2, P53671 (setting [2]), “below the threshold”; with LNX1_3, Q8TBB1 (setting [2]) it was “below the threshold”. The pKd result is listed as “below the threshold” with LNX2_3, Q8N448 (setting [2]); “below the threshold” with MPDZ_10, O75970 (setting [2]); “below the threshold” in the assay with MPP6, Q9NZW5 (setting [2]); “below the threshold” in the assay with MPP7, Q5T2T1 (setting [2]); “below the threshold” with NHERF3_3, Q5T2W1 (setting [2]); “below the threshold” with NHERF3_4, Q5T2W1 (setting [2]). For the same molecule, the pKd entry in the assay with NHERF4_2, Q86UT5 (setting [2]) is “below the threshold”; in the assay with NHERF4_4, Q86UT5 (setting [2]) it was “below the threshold”; with PDZD2_2, O15018 (setting [2]) it was 4.46; with SHANK1, Q9Y566 (setting [2]) it was 4.39; with TX1BP3, O14907 (setting [2]), 4.39.

B3: ATP2B4, P23634 (peptide)
chain: SSLQSLETSV
With B3, the pKd with APBA1_2, Q02410 (setting [1]) is 4.13; in the assay with APBA2_2, Q99767 (setting [1]), 3.59; with CARD11, Q9BXL7 (setting [1]), “below the threshold”; with DFNB31_2, Q9P202 (setting [1]) it was “below the threshold”; with DLG4_2, P78352 (setting [1]) it was 5.18; with FRMPD1, Q5SYB0 (setting [1]) it was “below the threshold”. Moreover, the pKd in the assay with FRMPD2_1, Q68DX3 (setting [1]) is 4.17; with IL16_1, Q14005 (setting [1]), 4.7; with Inadl_3, Q8NI35 (setting [1]), 3.56; in the assay with LAP2, Q96RT1 (setting [1]), 4.66; with LIMK2, P53671 (setting [1]) it was “below the threshold”; with LNX1_3, Q8TBB1 (setting [1]) it was 3.59. The negative logarithm of the Kd (pKd) entry in the assay with LNX2_3, Q8N448 (setting [1]) is “below the threshold”; in the assay with MPDZ_10, O75970 (setting [1]), “below the threshold”; with MPP6, Q9NZW5 (setting [1]) it was 3.56; in the assay with MPP7, Q5T2T1 (setting [1]) it was “below the threshold”; with NHERF3_3, Q5T2W1 (setting [1]) it was “below the threshold”; in the assay with NHERF3_4, Q5T2W1 (setting [1]) it was 3.63. Further, the pKd entry is “below the threshold” with NHERF4_2, Q86UT5 (setting [1]); “below the threshold” with NHERF4_4, Q86UT5 (setting [1]); 4.56 in the assay with PDZD2_2, O15018 (setting [1]); 3.94 with SHANK1, Q9Y566 (setting [1]); 4.62 with TX1BP3, O14907 (setting [1]).

B4: HPV18-E6, P06463 (peptide)
chain: RLQRRRETQV
Take B4: the pKd result with APBA1_2, Q02410 (setting [1]) is “below the threshold”; with APBA2_2, Q99767 (setting [1]), “below the threshold”; in the assay with CARD11, Q9BXL7 (setting [1]) it was “below the threshold”; in the assay with DFNB31_2, Q9P202 (setting [1]) it was “below the threshold”; in the assay with DLG4_2, P78352 (setting [1]), 5.46; with FRMPD1, Q5SYB0 (setting [1]) it was “below the threshold”. Further, the pKd with FRMPD2_1, Q68DX3 (setting [1]) is 4.1; with IL16_1, Q14005 (setting [1]), “below the threshold”; with Inadl_3, Q8NI35 (setting [1]), “below the threshold”; with LAP2, Q96RT1 (setting [1]), 3.61; with LIMK2, P53671 (setting [1]), “below the threshold”; with LNX1_3, Q8TBB1 (setting [1]) it was “below the threshold”. Further, the pKd entry in the assay with LNX2_3, Q8N448 (setting [1]) is “below the threshold”; with MPDZ_10, O75970 (setting [1]), 3.56; in the assay with MPP6, Q9NZW5 (setting [1]) it was “below the threshold”; with MPP7, Q5T2T1 (setting [1]) it was “below the threshold”; in the assay with NHERF3_3, Q5T2W1 (setting [1]) it was “below the threshold”; with NHERF3_4, Q5T2W1 (setting [1]), “below the threshold”. Moreover, the pKd result with NHERF4_2, Q86UT5 (setting [1]) is “below the threshold”; with NHERF4_4, Q86UT5 (setting [1]), “below the threshold”; in the assay with PDZD2_2, O15018 (setting [1]), 3.36; with SHANK1, Q9Y566 (setting [1]), “below the threshold”; in the assay with TX1BP3, O14907 (setting [1]), 4.67.
